Results on five molecules are retold here after paper PMC4517790 (PLoS ONE, 2015).

Residue numbers refer to the chain shown, from its start. Names may count otherwise.

In data set [1] the target is Alanine racemase AlrTt (MBAlr1) from Thermoanaerobacter tengcongensis MB4, wild type (Thermoanaerobacter tengcongensis MB4) (UniProt Q8RAK6). Nature of the data set: crystal structure; AlrTt (10 mg/mL) incubated with L-Ala and PLP at 1:1.5:1.5 molar ratio, hanging drop, 22% PEG 4000, 0.1 M Bis-Tris pH 7.0, 289 K; 2.7 Å; homodimer in one asymmetric unit.
Data set [2] has as its target T1, AlrTt (Caldanaerobacter subterraneus, UniProt Q8RAK6).
T1 construct: gene alr1; full length, pET-28a, N- and C-terminal 6xHis tags, E. coli BL21(DE3); 388 residues; homodimer in crystal, monomer in size exclusion
As to the kind of experiment: PLP content by absorption at […] nm. Format: binding. The conditions noted are these: active site, internal aldimine with Lys40 (covalent); in the crystal only the phosphate group of PLP was seen.

Data set [3] addresses T1, AlrTt. Nature of the data set: X-ray crystal structure, […] Å. The conditions noted are these: co-crystallized with L-Ala and PLP, pH 7.0; active site. Type of data set: binding.
Substrate in data set [4]: C[C@@H](N)C(=O)O
As to the kind of experiment: purified protein. Conditions: D-Ala to L-Ala; conditions of the kinetic assay not given.

Substrate in data set [5]: C[C@H](N)C(=O)O
As to the kind of experiment: purified protein. The conditions noted are these: L-Ala to D-Ala; conditions of the kinetic assay not given.

T1 sequence (Q8RAK6 whole entry): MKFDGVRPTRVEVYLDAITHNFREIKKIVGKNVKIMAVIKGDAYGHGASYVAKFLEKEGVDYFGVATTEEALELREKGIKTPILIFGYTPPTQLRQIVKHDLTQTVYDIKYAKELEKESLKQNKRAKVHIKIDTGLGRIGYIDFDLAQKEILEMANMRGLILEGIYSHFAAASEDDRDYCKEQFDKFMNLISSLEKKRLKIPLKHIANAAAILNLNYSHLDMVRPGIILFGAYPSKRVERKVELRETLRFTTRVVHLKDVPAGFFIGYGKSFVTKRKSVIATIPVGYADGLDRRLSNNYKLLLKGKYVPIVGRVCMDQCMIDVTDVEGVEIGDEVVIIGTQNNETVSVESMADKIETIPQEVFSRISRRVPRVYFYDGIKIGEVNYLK

The stoichiometry N is a count of units in the complex or per binding partner. Consider “Alanine racemase AlrTt (MBAlr1) from Thermoanaerobacter tengcongensis MB4, wild type (from UniProt Q8RAK6 1-388) (enzyme)”, for which, in data set [1], the stoichiometry N is 2.
At AlrTt [2], `Cc1ncc(COP(=O)(O)O)c(C=O)c1O` [PLP] gave a PLP content of 1.44 ± 0.01 mol PLP per mol enzyme.
As for `C[C@H](N)C(=O)O` [L-Ala], the “X-ray crystal structure, 2.7 Å” value at AlrTt [3] is given as “One L-Ala molecule is positioned in the active site pocket by hydrogen bonds”.

B1: AlrTt (Caldanaerobacter subterraneus subsp. tengcongensis MB4; Q360Y) (protein)
chain: MKFDGVRPTRVEVYLDAITHNFREIKKIVGKNVKIMAVIKGDAYGHGASYVAKFLEKEGVDYFGVATTEEALELREKGIKTPILIFGYTPPTQLRQIVKHDLTQTVYDIKYAKELEKESLKQNKRAKVHIKIDTGLGRIGYIDFDLAQKEILEMANMRGLILEGIYSHFAAASEDDRDYCKEQFDKFMNLISSLEKKRLKIPLKHIANAAAILNLNYSHLDMVRPGIILFGAYPSKRVERKVELRETLRFTTRVVHLKDVPAGFFIGYGKSFVTKRKSVIATIPVGYADGLDRRLSNNYKLLLKGKYVPIVGRVCMDQCMIDVTDVEGVEIGDEVVIIGTQNNETVSVESMADKIETIPYEVFSRISRRVPRVYFYDGIKIGEVNYLK
A word on the Km: it is the substrate concentration at which the rate is half of its maximum. The term kcat denotes the maximal rate divided by the concentration of active sites. A word on the kcat/Km: it is the second-order rate constant that governs catalysis at low substrate concentration. B1: in the data set “purified protein [4]”, the Km is 52.03 ± 5.41 mM, the kcat came to 251 s⁻¹ and the kcat/Km worked out at 4830 M⁻¹ s⁻¹. In the data set “purified protein [5]”, the Km was found to be 87.81 ± 8.72 mM, the kcat is 431 s⁻¹ and the kcat/Km was determined as 4910 M⁻¹ s⁻¹.

B2: AlrTt (Caldanaerobacter subterraneus subsp. tengcongensis MB4; Q360Y/S173D) (protein)
chain: B1 chain with S173D
As to B2, in “purified protein [4]”, the Km was determined as 58.48 ± 7.29 mM, the catalytic constant (kcat) amounted to 133 s⁻¹ and the kcat/Km amounted to 2270 M⁻¹ s⁻¹. Also, in the data set “purified protein [5]”, the Km is 83.10 ± 8.78 mM, the kcat turned out to be 246 s⁻¹ and the kcat/Km amounted to 2970 M⁻¹ s⁻¹.
